Where no end group is shown, it is not given here. The star is where a group is joined. Biotin = O=C1N[C@H]2[C@H](CS[C@H]2CCCCC(=O)*)N1
Legend:
human tau oligomers [1] = molecular target: T1, human tau oligomers (human, UniProt P10636-6 2-383, limits assumed); test: cell-based or functional assay
human tau oligomers [2] = molecular target: T1, human tau oligomers; test: cell-based or functional assay; remark: listed apart in the source
[3] = molecular target: T2, biotinylated 15 amino acid tau peptide, residues 302-316 (human); test: ELISA, biotinylated peptide on streptavidin plate
T2 peptide: Biotin-GGGSVQIVYKPVDLS
Procedure: (§1) Peptides contained 15 amino acids, with a 5 amino acid overlap. To enable binding to a streptavidin surface, peptides also contained an N-terminal biotin. Peptides were incubated on a streptavidin-coated plate, and the plate was blocked with 1% BSA in 1× PBS. After washing, antibodies were incubated on the plates for 1 hour at room temperature and washed. Plates were then coated with goat anti-mouse horseradish peroxidase (HRP), and washed. Plates were developed with OPD, and absorbance was read at 490 nm. […]

[4] = molecular target: T3, biotinylated 15 amino acid tau peptide, residues 383-397 (human); test: ELISA, biotinylated peptide on streptavidin plate
T3 peptide: Biotin-KAKTDHGAEIVYKSP
Procedure: as §1

[5] = molecular target: T4, recombinant human 4R0N tau (human, UniProt P10636 2-758); test: SPR Biacore; antibody captured by anti-mouse antibody; tau as analyte; global 1:1 fit
T4 construct: also called recombinant 4R0N human tau; P10636-6
Procedure: Surface plasmon resonance (SPR) analysis using Biacore was performed by immobilizing an anti-mouse (GE Lifesciences) antibody to a CM3 chip with EDC/NHS. Antibodies were then captured to the anti-mouse surface to equivalent levels. Regeneration was performed with 2 30 s injections of 10 mM Glycine pH 1.7. Various concentrations ranging from 500 to 0.122 nM, diluted in […] dilutions, of recombinant human 4R0N tau were flowed over the sensor for a 150s association phase and 300 s dissociation phase. Data was blank subtracted to both an irrelevant sensor not containing test antibody to account for irrelevant binding to the prepared sensor surface, and to the mobile phase vehicle to account for the dissociation of test antibody from the anti-mouse capture. Data was then analyzed with onboard evaluation software using a global 1:1 fit.

T1 sequence (P10636 other isoform, or with tags, fused parts or gaps limits assumed): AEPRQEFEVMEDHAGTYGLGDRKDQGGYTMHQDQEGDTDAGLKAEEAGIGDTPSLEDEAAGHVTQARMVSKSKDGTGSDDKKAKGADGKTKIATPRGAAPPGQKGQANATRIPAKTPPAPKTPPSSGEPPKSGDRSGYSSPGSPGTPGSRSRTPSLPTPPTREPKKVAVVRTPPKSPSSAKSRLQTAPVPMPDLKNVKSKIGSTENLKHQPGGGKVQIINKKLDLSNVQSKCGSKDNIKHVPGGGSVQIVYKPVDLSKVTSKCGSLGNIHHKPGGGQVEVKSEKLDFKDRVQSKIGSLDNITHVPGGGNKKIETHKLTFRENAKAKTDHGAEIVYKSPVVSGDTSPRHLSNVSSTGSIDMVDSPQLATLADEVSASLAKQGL
T4 sequence (P10636 other isoform, or with tags, fused parts or gaps limits assumed): as above

- LDH released by primary neurons with tau oligomers, antibody at 0.2 molar equivs (human tau oligomers [2]): 153 % of control
- LDH released by primary neurons with tau oligomers, antibody at 0.33 molar equivs (human tau oligomers [2]): 152 % of control
- LDH released by primary neurons with tau oligomers, antibody at 1 molar equivs (human tau oligomers [2]): 124 % of control
- LDH released by primary neurons with tau oligomers, antibody at 3 molar equivs (human tau oligomers [2]): 110 % of control
- LDH released by primary neurons with tau oligomers, antibody at 5 molar equivs (human tau oligomers [2]): 108 % of control
- binding result [3]: binds
- binding result [4]: binds
- Kd [5]: 0.363 nM
- koff [5]: 0.00206 s⁻¹
- kon [5]: 5.69e+06 M⁻¹ s⁻¹
B1: mouse 12C4 antibody (antibody, mouse IgG2a, V domains shown)
VH: EVQLQQSGAELVRPGASVKLSCTASGFNIKDDYMNWVRQRPERGLEWIGWIDPENGDTAYASKFQGKATMTADTSSNTAYLQFSSLTSEDSAVYYCTTSNGWGQGTLVTVSA
VL: DIVMTQAAFSNPVTLGTSASISCRSSKSLLHSNGITYLYWYLQKPGQSPQLLIYQMSNLASGVPDRFSSSGSGTDFTLRISRVEAEDVGVYYCAQNLELPLTFGAGTKLELK
notes: also called m12C4
- MTT viability of primary neurons with tau oligomers, antibody at 0.2 molar equivs (human tau oligomers [1]): 48.6 % of control
- MTT viability of primary neurons with tau oligomers, antibody at 0.33 molar equivs (human tau oligomers [1]): 53.2 % of control
- MTT viability of primary neurons with tau oligomers, antibody at 1 molar equivs (human tau oligomers [1]): 62.3 % of control
- MTT viability of primary neurons with tau oligomers, antibody at 3 molar equivs (human tau oligomers [1]): 78.7 % of control
- MTT viability of primary neurons with tau oligomers, antibody at 5 molar equivs (human tau oligomers [1]): 81.1 % of control
